According to patent US20130059772A1, “Use of Repeat Sequence Protein Polymers in Personal Care Compositions” (DANISCO US INC., priority 2003, published 2013):
Each block holds one compound with its values, some of them ahead of it.

Columns and labels:
elastase = experiment: Elastase inhibition assay (fibroblast lysate, STANA substrate); type: biochemical, human; conditions: positive control
Experimental: The RSPP test materials were also tested to determine their effect(s) on elastase activity. In these experiments, human dermal fibroblasts were used as a source of the elastase enzyme. This enzyme was partially purified from the fibroblasts by lysing the cells in an elastase buffer and retaining the soluble portion of the lysate. Portions of this fibroblast lysate were then incubated with test materials and a synthetic elastase substrate, Suc-(Ala3)-p-Nitroaniline (STANA). Elastase acts upon this substrate to release p-nitroaniline, which can be detected spectrophotometrically by measuring the absorbance at a wavelength of 405 nm. […]
The fibroblasts were washed twice with 15 ml of phosphate buffered saline with each wash removed via aspiration. […] The protein concentration of the fibroblast lysate was determined using the Pierce BCA Protein Assay kit (see below for details) and the fibroblast lysate was stored at −75° C. until used (for up to 1 year).
Upon determining the protein concentration of the lysate, a small sample was obtained and the elastase activity of the lysate was determined at 1×, 0.5× and 0.25× concentrations. The activity was determined for each of the different concentrations in exactly the same way that the uninhibited sample was treated in the elastase assay (see below). […] After 1.25 hours, the well plate was removed and read in a 96-well plate reader at 405 nm. […]

[1] = system: cultured dermal fibroblasts; experiment: UVB protection, initial MTT assay (material applied after UVB); conditions: Homo sapiens, Fibroblast, light or radiation study, 48 h, read-out: +UVB Percent Viability
Experimental: (§1) In these experiments, the test material was tested at six concentrations with two duplicate sets of cells prepared. […] Changes in cell viability were then determined 48 hours post material application via an MTT assay, as described above.
(§2) Fibroblasts were seeded into the individual wells of a 96 well plate in 100 μl FGM, and incubated overnight at 37±2° C. and 5±1% CO2. On the following day, the media were removed via aspiration to eliminate any non-adherent cells and replaced with 100 μl of fresh FGM. The cells were grown until confluent, with a media change every 48 to 72 hours.
(§3) An UVLM-26 lamp was used as the source of UVB light. UV light intensity was measured using a UVX radiometer coupled to a UVB sensor probe (UV Products) to determine the time required to deliver an approximate dose of 50 mj/cm^2. Prior to UVB exposure, the FGM was replaced with 100 μl PBS. After exposure, the PBS was removed and replaced with FGM supplemented with either the test materials, 20 μM Trolox, or left unsupplemented. A duplicate set of cells was also prepared and treated as described above, with the exception that they were not exposed to UVB light. […] The cells were allowed to incubate with the test materials for 48 hours, and then changes in cell viability were determined via an MTT assay. […]
(§4) After the 48-hour incubation, the cell culture medium was removed and the fibroblasts were washed with PBS to remove any remaining test material. […] The 96-well plate was then read at 540 nm using isopropyl alcohol as a blank.
(§5) The mean MTT absorbance value for the negative control cells (non-UVB exposed and non test material treated cells) was calculated and used to represent 100% value for cell number. The individual MTT values from the cells undergoing the various treatments was then divided by the mean value for the negative control cells and expressed as a percent, to determine the change in cell viability caused by each treatment. MTT scores for each treatment are expressed as means±the standard deviation of the mean.

[2] = as above; conditions: human, cultured dermal fibroblasts
Experimental: as §1, §2, §3, §4, §5

elastin = experiment: Elastin assay (Fastin colorimetric assay of culture media); type: cell-based, human; conditions: summary in words
Experimental: Elastin is released by fibroblasts (soluble elastin) into the extracellular space where it is then cross-linked to other elastin proteins to form an extensive network of fibers and sheets (insoluble elastin). Soluble elastin can be readily measured from cell culture medium via a colorimetric assay.
The test materials were tested in triplicate.
In these experiments, the Biocolor Fastin Elastin Assay kits were used. A 50 μl aliquot of sample material (cell culture medium for soluble elastin) was mixed with 1.0 ml of cold Fastin Precipitating Reagent in a 1.5-ml microcentrifuge tube. […]
To release the elastin-bound dye, 1.0 ml of Fastin Destain reagent was added to each microcentrifuge tube. […] The absorbance of this solution was measured by a plate reader at 490 nm (200 μl volume read).
An elastin standard curve was generated using 12.5, 25, and 50 μg aliquots of an Elastin Standard into microcentrifuge tubes (in duplicate). These samples were treated as described above (Elastin Assay) and the absorbance values were used to generate a standard curve of known concentrations. To derive the standard curve for the elastin assay, the absorbance was plotted against the elastin concentration in μg/ml for the standards. […] Mean absorbance values for the test materials and untreated samples were then used to estimate the amount of elastin present in each sample.

[3] = system: Fibroblasts (HDFn Cell Line); experiment: Initial pilot cell viability dose response (MTT assay); conditions: for cell viability, percent of untreated cells: 48 hours
Experimental: Initial screening was conducted to identify a test range suitable to determine the effect of a broad range of test material concentrations on cell viability. […] Cultured fibroblasts were exposed to the test materials for 48 hours and then changes in cell viability were determined using an MTT assay (i.e., a colorimetric analysis of the metabolic activity of the cultured cells, described in greater detail below).
The purple crystals are extracted from the cells with isopropanol and the amount of crystal formation quantified spectrophotometrically. […] A decrease in color intensity can be a sign of toxicity.
Fibroblasts (Cascade Biologics, HDFn Cell Line, lot#1C0914) were seeded into the individual wells of either a 96-well plate (for the initial pilot work to determine concentration effects on cell viability) in 100 μl of Fibroblast Growth Media (FGM) or in 12-well plates (for the measurement of collagen, elastin and MMP-1) in 1.0 ml of FGM and incubated overnight at 37±2° C. and 5±1% CO2. On the following day, the medium was removed via aspiration to eliminate any non-adherent cells and replaced with fresh FGM. The cells were grown until confluent, with a media change every 48 to 72 hours. Upon reaching confluency, the cells were treated for 24 hours with Dulbecco's Modified Essential Media (DMEM) supplemented with 1.5% FBS to wash out any effects from the growth factors included in the normal FGM. After this 24-hour wash out period, the cells were treated with the test materials at the specified concentrations dissolved in DMEM with 1.5% FBS. Untreated cells (negative controls) received DMEM with 1.5% FBS. The cells were incubated for 48 hours and at the end of the incubation period cell culture medium was either discarded (pilot work) or collected and stored frozen at −75° C. The test materials were tested in triplicate.
After the 2-day incubation, the cell culture medium was removed and the fibroblasts were washed twice with PBS to remove any remaining test material. After the final wash, either 100 μl (96-well plates) or 300 μl (12-well plates) of DMEM supplemented with 0.5 mg/ml MTT were added to each well and the cells were incubated for 1 hour at 37±2° C. and 5±1% CO2. After the incubation, the DMEM/MTT solution was removed and the cells were washed again once with PBS and then either 100 μl (96-well plates) or 1 ml (12-well plates) of isopropyl alcohol were added to each well to extract the purple formazin crystals. For the 12-well plates, two hundred microliters of the isopropyl extracts was transferred to a 96-well plate. The 96-well plates were read at 540 nm using isopropyl alcohol as a blank. The mean MTT absorbance value for the negative control cells was calculated and used to represent 100% value for cell viability. The individual MTT values from the cells undergoing the various treatments were then divided by the mean value for the negative control cells and expressed as a percent, to determine the change in cell viability caused by each treatment.

Percent Inhibition (elastase; 30 nM): 43%
Percent Inhibition (elastase; 100 uM): 96%
Compound: CC(C)C[C@H](NP(=O)(O)O[C@@H]1O[C@@H](C)[C@H](O)[C@@H](O)[C@H]1O)C(=O)N[C@@H](Cc1c[nH]c2ccccc12)C(=O)O [Phosphoramidon, phosphoramidon, reference compound]

Compound: Cc1c(C)c2c(c(C)c1O)CCC(C)(C(=O)O)O2 (stereo not shown) [Trolox]
viability at 20 µM [1]: 77 ± 9%
viability at 48 h, 20 µM [2]: 120 ± 11%

Compound: GC2596-26-A: monodispersed 13-mer SELP47K RSPP (Example 1)
effect on elastin synthesis (elastin): excellent increase
cell viability, percent of untreated cells ([3]; 0.0014%): 99 ± 1%
cell viability, percent of untreated cells ([3]; 0.007%): 101 ± 5%
cell viability, percent of untreated cells ([3]; 0.014%): 99 ± 10%
cell viability, percent of untreated cells ([3]; 0.07%): 96 ± 6%
cell viability, percent of untreated cells ([3]; 0.14%): 101 ± 4%
cell viability, percent of untreated cells ([3]; 0.5%): 171 ± 4%
cell viability, percent of untreated cells ([3]; 1%): 138 ± 7%
effect on the number of viable cells ([3]; initial dose response, summary in words): strongly stimulate increases in the number of viable cells
